From paper PMC12096439, “Ion-DNA Interactions as a Key Determinant of Uracil DNA Glycosylase Activity” come the findings set out here.

For this series, the target named is UNG2-Fluor (human, UniProt P13051 =C+1-313, C141A;C166A;C290A;internal_change). In words: fluorescence quenching titration; 1 mM MgCl2; 10 mM Tris-Cl, 0.1 mM EDTA, pH 8.0, 2 mM NaCl carry-over, MgCl2 varied, 22 C, 50 nM UNG2-Fluor; ex 495 nm, em 520 nm. Conditions: protein: recombinant; tags: N-terminal fluorescein (maleimide on added Cys); label: 5' Iowa Black FQ; single strand.
Sequence of UNG2-Fluor (P13051 other isoform, or with tags, fused parts or gaps C141A;C166A;C290A;): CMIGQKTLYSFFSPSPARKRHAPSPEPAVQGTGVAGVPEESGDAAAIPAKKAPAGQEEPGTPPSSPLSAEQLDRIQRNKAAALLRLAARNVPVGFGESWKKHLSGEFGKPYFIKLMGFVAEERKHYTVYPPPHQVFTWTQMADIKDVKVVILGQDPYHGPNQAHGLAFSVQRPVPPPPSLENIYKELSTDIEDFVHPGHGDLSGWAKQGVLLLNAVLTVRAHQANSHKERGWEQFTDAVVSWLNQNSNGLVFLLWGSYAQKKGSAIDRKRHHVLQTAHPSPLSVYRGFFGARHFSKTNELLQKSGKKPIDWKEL

Regarding TCAGGTGAATCGATAGCTAAGAGCATG (ssDNA) [27 nt dark quencher ssDNA], the Kd – broadly, the constant that tells how readily two partners part at equilibrium – was 3 nM. Then CGATAG (ssDNA) [6 nt dark quencher ssDNA], with 1000 nM.
